In article PMC3160285, “Fukutin-Related Protein Resides in the Golgi Cisternae of Skeletal Muscle Fibres and Forms Disulfide-Linked Homodimers via an N-Terminal Interaction” (PLoS ONE, 2011):

target: FKRP Cys317Ser/Cys318Ser (human) (UniProt Q9H9S5); test: SDS-PAGE (non-reducing and reducing) with Western blot; cleared COS-7 lysates prepared with 5 mM NEM; untreated or reduced with 330-400 mM DTT at RT for 30 min; 4-12% gel; detection with FKRP207 antibody

Row | Molecule | stoichiometry N
1 | FKRP Cys317Ser/Cys318Ser (from UniProt Q9H9S5 1-495) (natural protein) | 2

Target: the molecule itself
Test: as above

Row | Molecule | stoichiometry N
2 | FKRP-282 (C-terminal truncation mutant of FKRP) (domain or fragment, human, UniProt Q9H9S5 1-282, looked up, fukutin-related protein (FKRP), human; C-terminal truncation, last amino acid 282; source: COS-7, transfected, in lysate (5 mM NEM)) MRLTRCQAALAAAITLNLLVLFYVSWLQHQPRNSRARGPRRASAAGPRVTVLVREFEAFDNAVPELVDSFLQQDPAQPVVVAADTLPYPPLALPRIPNVRLALLQPALDRPAAASRPETYVATEFVALVPDGARAEAPGLLERMVEALRAGSARLVAAPVATANPARCLALNVSLREWTARYGAAPAAPRCDALDGDAVVLLRARDLFNLSAPLARPVGTSLFLQTALRGWAVQLLDLTFAAARQPPLATAHARWKAEREGRARRAALLRALGIRLVSWEGG | 2
3 | FKRP Cys168Ser (natural protein, human, UniProt Q9H9S5 1-495, looked up, fukutin-related protein (FKRP), human, 495 aa, made from pcDNA3.1-FKRP by site-directed mutagenesis; also called FKRP-C168S; source: COS-7, transfected, in lysate (5 mM NEM)) MRLTRCQAALAAAITLNLLVLFYVSWLQHQPRNSRARGPRRASAAGPRVTVLVREFEAFDNAVPELVDSFLQQDPAQPVVVAADTLPYPPLALPRIPNVRLALLQPALDRPAAASRPETYVATEFVALVPDGARAEAPGLLERMVEALRAGSARLVAAPVATANPARSLALNVSLREWTARYGAAPAAPRCDALDGDAVVLLRARDLFNLSAPLARPVGTSLFLQTALRGWAVQLLDLTFAAARQPPLATAHARWKAEREGRARRAALLRALGIRLVSWEGGRLEWFGCNKETTRCFGTVVGDTPAYLYEERWTPPCCLRALRETARYVVGVLEAAGVRYWLEGGSLLGAARHGDIIPWDYDVDLGIYLEDVGNCEQLRGAEAGSVVDERGFVWEKAVEGDFFRVQYSESNHLHVDLWPFYPRNGVMTKDTWLDHRQDVEFPEHFLQPLVPLPFAGFVAQAPNNYRRFLELKFGPGVIENPQYPNPALLSLTGSG | 2
4 | FKRP Cys191Ser (natural protein, human, UniProt Q9H9S5 1-495, looked up, fukutin-related protein (FKRP), human, 495 aa, made from pcDNA3.1-FKRP by site-directed mutagenesis; also called FKRP-C191S; source: COS-7, transfected, in lysate (5 mM NEM)) MRLTRCQAALAAAITLNLLVLFYVSWLQHQPRNSRARGPRRASAAGPRVTVLVREFEAFDNAVPELVDSFLQQDPAQPVVVAADTLPYPPLALPRIPNVRLALLQPALDRPAAASRPETYVATEFVALVPDGARAEAPGLLERMVEALRAGSARLVAAPVATANPARCLALNVSLREWTARYGAAPAAPRSDALDGDAVVLLRARDLFNLSAPLARPVGTSLFLQTALRGWAVQLLDLTFAAARQPPLATAHARWKAEREGRARRAALLRALGIRLVSWEGGRLEWFGCNKETTRCFGTVVGDTPAYLYEERWTPPCCLRALRETARYVVGVLEAAGVRYWLEGGSLLGAARHGDIIPWDYDVDLGIYLEDVGNCEQLRGAEAGSVVDERGFVWEKAVEGDFFRVQYSESNHLHVDLWPFYPRNGVMTKDTWLDHRQDVEFPEHFLQPLVPLPFAGFVAQAPNNYRRFLELKFGPGVIENPQYPNPALLSLTGSG | 2
5 | Fukutin-related protein (FKRP), human, wild type, untagged (pcDNA3.1-FKRP) (natural protein, UniProt Q9H9S5 1-495, looked up, N-linked glycans of high mannose and/or hybrid type at Asn172 and Asn209, fukutin-related protein (FKRP), human, 495 aa; Same construct expressed in two cell lines; the assay's format names the cell line; also called hFKRP; full length FKRP; source: COS-7 or BHK-21, transfected (pcDNA3.1-FKRP), in lysate) MRLTRCQAALAAAITLNLLVLFYVSWLQHQPRNSRARGPRRASAAGPRVTVLVREFEAFDNAVPELVDSFLQQDPAQPVVVAADTLPYPPLALPRIPNVRLALLQPALDRPAAASRPETYVATEFVALVPDGARAEAPGLLERMVEALRAGSARLVAAPVATANPARCLALNVSLREWTARYGAAPAAPRCDALDGDAVVLLRARDLFNLSAPLARPVGTSLFLQTALRGWAVQLLDLTFAAARQPPLATAHARWKAEREGRARRAALLRALGIRLVSWEGGRLEWFGCNKETTRCFGTVVGDTPAYLYEERWTPPCCLRALRETARYVVGVLEAAGVRYWLEGGSLLGAARHGDIIPWDYDVDLGIYLEDVGNCEQLRGAEAGSVVDERGFVWEKAVEGDFFRVQYSESNHLHVDLWPFYPRNGVMTKDTWLDHRQDVEFPEHFLQPLVPLPFAGFVAQAPNNYRRFLELKFGPGVIENPQYPNPALLSLTGSG | 2
6 | FKRP Cys375Ser (natural protein, human, UniProt Q9H9S5 1-495, looked up, fukutin-related protein (FKRP), human, 495 aa, made from pcDNA3.1-FKRP by site-directed mutagenesis; also called FKRP-C375S; source: COS-7, transfected, in lysate (5 mM NEM)) MRLTRCQAALAAAITLNLLVLFYVSWLQHQPRNSRARGPRRASAAGPRVTVLVREFEAFDNAVPELVDSFLQQDPAQPVVVAADTLPYPPLALPRIPNVRLALLQPALDRPAAASRPETYVATEFVALVPDGARAEAPGLLERMVEALRAGSARLVAAPVATANPARCLALNVSLREWTARYGAAPAAPRCDALDGDAVVLLRARDLFNLSAPLARPVGTSLFLQTALRGWAVQLLDLTFAAARQPPLATAHARWKAEREGRARRAALLRALGIRLVSWEGGRLEWFGCNKETTRCFGTVVGDTPAYLYEERWTPPCCLRALRETARYVVGVLEAAGVRYWLEGGSLLGAARHGDIIPWDYDVDLGIYLEDVGNSEQLRGAEAGSVVDERGFVWEKAVEGDFFRVQYSESNHLHVDLWPFYPRNGVMTKDTWLDHRQDVEFPEHFLQPLVPLPFAGFVAQAPNNYRRFLELKFGPGVIENPQYPNPALLSLTGSG | 2
7 | FKRP-Cys289Ser (natural protein, human, UniProt Q9H9S5 1-495, looked up, fukutin-related protein (FKRP), human, 495 aa, made from pcDNA3.1-FKRP by site-directed mutagenesis; also called FKRP-C289S; source: COS-7, transfected, in lysate (5 mM NEM)) MRLTRCQAALAAAITLNLLVLFYVSWLQHQPRNSRARGPRRASAAGPRVTVLVREFEAFDNAVPELVDSFLQQDPAQPVVVAADTLPYPPLALPRIPNVRLALLQPALDRPAAASRPETYVATEFVALVPDGARAEAPGLLERMVEALRAGSARLVAAPVATANPARCLALNVSLREWTARYGAAPAAPRCDALDGDAVVLLRARDLFNLSAPLARPVGTSLFLQTALRGWAVQLLDLTFAAARQPPLATAHARWKAEREGRARRAALLRALGIRLVSWEGGRLEWFGSNKETTRCFGTVVGDTPAYLYEERWTPPCCLRALRETARYVVGVLEAAGVRYWLEGGSLLGAARHGDIIPWDYDVDLGIYLEDVGNCEQLRGAEAGSVVDERGFVWEKAVEGDFFRVQYSESNHLHVDLWPFYPRNGVMTKDTWLDHRQDVEFPEHFLQPLVPLPFAGFVAQAPNNYRRFLELKFGPGVIENPQYPNPALLSLTGSG | 2
8 | FKRP Cys296Ser (natural protein, human, UniProt Q9H9S5 1-495, looked up, fukutin-related protein (FKRP), human, 495 aa, made from pcDNA3.1-FKRP by site-directed mutagenesis; also called FKRP-C296S; source: COS-7, transfected, in lysate (5 mM NEM)) MRLTRCQAALAAAITLNLLVLFYVSWLQHQPRNSRARGPRRASAAGPRVTVLVREFEAFDNAVPELVDSFLQQDPAQPVVVAADTLPYPPLALPRIPNVRLALLQPALDRPAAASRPETYVATEFVALVPDGARAEAPGLLERMVEALRAGSARLVAAPVATANPARCLALNVSLREWTARYGAAPAAPRCDALDGDAVVLLRARDLFNLSAPLARPVGTSLFLQTALRGWAVQLLDLTFAAARQPPLATAHARWKAEREGRARRAALLRALGIRLVSWEGGRLEWFGCNKETTRSFGTVVGDTPAYLYEERWTPPCCLRALRETARYVVGVLEAAGVRYWLEGGSLLGAARHGDIIPWDYDVDLGIYLEDVGNCEQLRGAEAGSVVDERGFVWEKAVEGDFFRVQYSESNHLHVDLWPFYPRNGVMTKDTWLDHRQDVEFPEHFLQPLVPLPFAGFVAQAPNNYRRFLELKFGPGVIENPQYPNPALLSLTGSG | 2
9 | FKRP-Asn209Gln (natural protein, human, UniProt Q9H9S5 1-495, looked up, fukutin-related protein (FKRP), human, 495 aa, made from pcDNA3.1-FKRP by site-directed mutagenesis; source: COS-7, transfected, in lysate (5 mM NEM)) MRLTRCQAALAAAITLNLLVLFYVSWLQHQPRNSRARGPRRASAAGPRVTVLVREFEAFDNAVPELVDSFLQQDPAQPVVVAADTLPYPPLALPRIPNVRLALLQPALDRPAAASRPETYVATEFVALVPDGARAEAPGLLERMVEALRAGSARLVAAPVATANPARCLALNVSLREWTARYGAAPAAPRCDALDGDAVVLLRARDLFQLSAPLARPVGTSLFLQTALRGWAVQLLDLTFAAARQPPLATAHARWKAEREGRARRAALLRALGIRLVSWEGGRLEWFGCNKETTRCFGTVVGDTPAYLYEERWTPPCCLRALRETARYVVGVLEAAGVRYWLEGGSLLGAARHGDIIPWDYDVDLGIYLEDVGNCEQLRGAEAGSVVDERGFVWEKAVEGDFFRVQYSESNHLHVDLWPFYPRNGVMTKDTWLDHRQDVEFPEHFLQPLVPLPFAGFVAQAPNNYRRFLELKFGPGVIENPQYPNPALLSLTGSG | 2
10 | FKRP-Asn172Gln/Asn209Gln (natural protein, human, UniProt Q9H9S5 1-495, looked up, fukutin-related protein (FKRP), human, 495 aa, made from pcDNA3.1-FKRP by site-directed mutagenesis; also called double mutant; source: COS-7, transfected, in lysate (5 mM NEM)) MRLTRCQAALAAAITLNLLVLFYVSWLQHQPRNSRARGPRRASAAGPRVTVLVREFEAFDNAVPELVDSFLQQDPAQPVVVAADTLPYPPLALPRIPNVRLALLQPALDRPAAASRPETYVATEFVALVPDGARAEAPGLLERMVEALRAGSARLVAAPVATANPARCLALQVSLREWTARYGAAPAAPRCDALDGDAVVLLRARDLFQLSAPLARPVGTSLFLQTALRGWAVQLLDLTFAAARQPPLATAHARWKAEREGRARRAALLRALGIRLVSWEGGRLEWFGCNKETTRCFGTVVGDTPAYLYEERWTPPCCLRALRETARYVVGVLEAAGVRYWLEGGSLLGAARHGDIIPWDYDVDLGIYLEDVGNCEQLRGAEAGSVVDERGFVWEKAVEGDFFRVQYSESNHLHVDLWPFYPRNGVMTKDTWLDHRQDVEFPEHFLQPLVPLPFAGFVAQAPNNYRRFLELKFGPGVIENPQYPNPALLSLTGSG | 2
11 | FKRP-Asn172Gln (natural protein, human, UniProt Q9H9S5 1-495, looked up, fukutin-related protein (FKRP), human, 495 aa, made from pcDNA3.1-FKRP by site-directed mutagenesis; source: COS-7, transfected, in lysate (5 mM NEM)) MRLTRCQAALAAAITLNLLVLFYVSWLQHQPRNSRARGPRRASAAGPRVTVLVREFEAFDNAVPELVDSFLQQDPAQPVVVAADTLPYPPLALPRIPNVRLALLQPALDRPAAASRPETYVATEFVALVPDGARAEAPGLLERMVEALRAGSARLVAAPVATANPARCLALQVSLREWTARYGAAPAAPRCDALDGDAVVLLRARDLFNLSAPLARPVGTSLFLQTALRGWAVQLLDLTFAAARQPPLATAHARWKAEREGRARRAALLRALGIRLVSWEGGRLEWFGCNKETTRCFGTVVGDTPAYLYEERWTPPCCLRALRETARYVVGVLEAAGVRYWLEGGSLLGAARHGDIIPWDYDVDLGIYLEDVGNCEQLRGAEAGSVVDERGFVWEKAVEGDFFRVQYSESNHLHVDLWPFYPRNGVMTKDTWLDHRQDVEFPEHFLQPLVPLPFAGFVAQAPNNYRRFLELKFGPGVIENPQYPNPALLSLTGSG | 2
12 | FKRP-373 (C-terminal truncation mutant of FKRP) (domain or fragment, human, UniProt Q9H9S5 1-373, looked up, fukutin-related protein (FKRP), human; C-terminal truncation, last amino acid 373; source: COS-7, transfected, in lysate (5 mM NEM)) MRLTRCQAALAAAITLNLLVLFYVSWLQHQPRNSRARGPRRASAAGPRVTVLVREFEAFDNAVPELVDSFLQQDPAQPVVVAADTLPYPPLALPRIPNVRLALLQPALDRPAAASRPETYVATEFVALVPDGARAEAPGLLERMVEALRAGSARLVAAPVATANPARCLALNVSLREWTARYGAAPAAPRCDALDGDAVVLLRARDLFNLSAPLARPVGTSLFLQTALRGWAVQLLDLTFAAARQPPLATAHARWKAEREGRARRAALLRALGIRLVSWEGGRLEWFGCNKETTRCFGTVVGDTPAYLYEERWTPPCCLRALRETARYVVGVLEAAGVRYWLEGGSLLGAARHGDIIPWDYDVDLGIYLEDVG | 2
13 | FKRP-157 (C-terminal truncation mutant of FKRP) (domain or fragment, human, UniProt Q9H9S5 1-157, looked up, fukutin-related protein (FKRP), human; source: COS-7, transfected, in lysate (5 mM NEM)) MRLTRCQAALAAAITLNLLVLFYVSWLQHQPRNSRARGPRRASAAGPRVTVLVREFEAFDNAVPELVDSFLQQDPAQPVVVAADTLPYPPLALPRIPNVRLALLQPALDRPAAASRPETYVATEFVALVPDGARAEAPGLLERMVEALRAGSARLVA | 2
